Our source for the Kd, koff and kon values is paper PMC12901202.

What all share (assay): BLI; […]; 300 s association, 300 s dissociation; 10x kinetics buffer; […]; global fit, 1:1 model; […]
Experiment [1] concerns the target SARS-CoV-2 XBB.1.5 RBD, biotinylated (SARS-CoV-2) (UniProt P0DTC2).
Experiment [2] has as its target SARS-CoV-2 BQ.1.1 RBD, biotinylated (SARS-CoV-2) (UniProt P0DTC2).
Experiment [3] addresses SARS-CoV-2 BA.2.86 RBD, biotinylated (SARS-CoV-2) (UniProt P0DTC2).
The target of experiment [4] is SARS-CoV-2 Wuhan-Hu-1 RBD, biotinylated (SARS-CoV-2) (UniProt P0DTC2).
The target in experiment [5] is SARS-CoV-2 BA.2.75.2 RBD, biotinylated (SARS-CoV-2) (UniProt P0DTC2).
Experiment [6] deals with SARS-CoV-2 Delta RBD, biotinylated (SARS-CoV-2) (UniProt P0DTC2).
Experiment [7] deals with SARS-CoV-2 BA.2.12.1 RBD, biotinylated (SARS-CoV-2) (UniProt P0DTC2).
Experiment [8] concerns the target SARS-CoV-2 BA.5 RBD, biotinylated (SARS-CoV-2) (UniProt P0DTC2).

As to “TRI2-2 homotrimeric miniprotein inhibitor (designed binder)”, the Kd in experiment [1] was 0.658 nM; in experiment [2], 0.21 nM; in experiment [3], 0.388 nM; in experiment [4], 0.00121 nM; in experiment [5], 0.542 nM; in experiment [6], 0.00114 nM. Also, the dissociation constant Kd in experiment [7] worked out at 0.851 nM; in experiment [8], 0.0306 nM. Besides, the dissociation rate constant (koff) was 0.000105 s⁻¹ in experiment [1]; 3.36e-05 s⁻¹ in experiment [2]; 0.000131 s⁻¹ in experiment [3]; 3.46e-07 s⁻¹ in experiment [4]; 8.93e-05 s⁻¹ in experiment [5]; 2.95e-07 s⁻¹ in experiment [6]. For the same substance, the values for the dissociation rate constant (koff) in experiment [7] and in experiment [8] were 0.000117 s⁻¹ and 9.92e-06 s⁻¹, respectively. In addition, the kon in experiment [1] worked out at 160000 M⁻¹ s⁻¹; in experiment [2], 160000 M⁻¹ s⁻¹; in experiment [3], 339000 M⁻¹ s⁻¹; in experiment [4], 286000 M⁻¹ s⁻¹; in experiment [5], 165000 M⁻¹ s⁻¹; in experiment [6], 259000 M⁻¹ s⁻¹. The kon in experiment [7] was determined as 137000 M⁻¹ s⁻¹; in experiment [8], 325000 M⁻¹ s⁻¹.
